{"source": "paper doi:10.1101/2025.01.01.631016", "about": "“A tool to dissect heterotypic determinants of homotypic protein phase behavior” (bioRxiv, 2025)", "molecular_target": "T1, Avitag-His-TEV-mEos3.1 (Lobophyllia hemprichii EosFP, …, point mutant)", "T1 construct": "also called purified mEos3.1; pET-Biotin-His6-mEos3.1; source: E. coli BL21 (DE3), co-expressed with BirA, purified (Ni-NTA, anion exchange)", "T1 chain": "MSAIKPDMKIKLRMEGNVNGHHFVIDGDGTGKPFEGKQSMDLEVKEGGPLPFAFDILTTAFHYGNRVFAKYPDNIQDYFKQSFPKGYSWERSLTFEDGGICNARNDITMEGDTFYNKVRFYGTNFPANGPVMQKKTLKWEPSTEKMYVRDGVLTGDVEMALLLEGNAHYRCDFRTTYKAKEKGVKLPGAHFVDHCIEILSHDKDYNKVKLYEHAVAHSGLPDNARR", "assay": "BLI", "conditions": "both partners purified"}
{"binder": "tag free mEosNb (VHH, also called mEos3Nb; nanobody against mEos3; not shown: Avitag, C-terminal, cleaved; His, C-terminal, cleaved) VHH: QVQLQESGGGLVQAGGSLRLSCAASGNISQLVYMGWYRQAPGKERELVAGITHGGITYYADSVKGRFTISRDNAKNTVYLQMNSLKPEDTAVYYCAAFQWRSDDVGYLNLGPLEYWGQGTQVTVSS", "values": [{"measurement": "Kd", "value": 76.8, "unit": "nM"}]}
